Drawing on patent publication CN107540747A, this text covers 效价 (titer (1:x dilution)) for one molecule.

The target of the test is 人DLL4分子 (full-length human DLL4 on the cell surface) (human) (UniProt Q9NR61). The test can be described thus: indirect immunofluorescence, flow cytometry on CHO/DLL4 cells. (In general: Flow cytometry measures light scatter and fluorescence of single cells or particles in a stream.)

A value given as a limit tells only on which side of the number the result lay.

UniProt Q9NR61, sequence (Q9NR61 27-685): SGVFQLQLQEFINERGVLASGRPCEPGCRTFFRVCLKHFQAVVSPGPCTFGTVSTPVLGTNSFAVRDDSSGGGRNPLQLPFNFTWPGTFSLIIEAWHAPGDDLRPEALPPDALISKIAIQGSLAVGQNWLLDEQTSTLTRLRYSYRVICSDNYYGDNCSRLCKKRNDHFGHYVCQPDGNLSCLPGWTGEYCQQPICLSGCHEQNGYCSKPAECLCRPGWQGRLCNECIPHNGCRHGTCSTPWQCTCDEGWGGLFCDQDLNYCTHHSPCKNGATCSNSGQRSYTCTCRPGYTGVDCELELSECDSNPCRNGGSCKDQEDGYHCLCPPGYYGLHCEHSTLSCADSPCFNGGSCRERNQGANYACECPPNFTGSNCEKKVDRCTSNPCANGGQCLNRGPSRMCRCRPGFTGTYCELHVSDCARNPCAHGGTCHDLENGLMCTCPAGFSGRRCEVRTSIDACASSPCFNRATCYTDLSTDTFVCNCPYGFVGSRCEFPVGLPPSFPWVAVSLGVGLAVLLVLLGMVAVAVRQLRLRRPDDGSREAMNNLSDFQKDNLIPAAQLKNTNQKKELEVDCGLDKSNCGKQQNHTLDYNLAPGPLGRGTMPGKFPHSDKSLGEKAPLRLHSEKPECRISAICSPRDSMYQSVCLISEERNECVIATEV

B1: 抗人DLL4单克隆抗体6F12 (antibody, mouse IgG2b, V domains shown)
VH: EVHVKQSGPELVKPGASVKMSCKASGYTFTSYLLHWVKQKPGQGLEWIGYIIPYNDGTRYNEKFKGKATLTSDKSSNTAYMELSSLTSEDSAVYYCAREGTGTGAFDYWGQGTSLTVSS
VL: DIVLTQSPAIMSASPGEKVTMTCRASSSVNYMYWYQQKPGSSPRLLIYDTSNLASGVPVRFSGSGSGTSYSLTISRMEAEDAATYYCQQWSSYPYTFGGGTKLEIK
On to B1, for which the 效价 (titer (1:x dilution)) is over 10000.
